# Reference: the supplement of paper PMC7125110
# ± gives the standard error. Variants at the floor of the assay were thinned out.
# B1: glmS ribozyme (parent)
# chain: AUAAAAGCGCCAGAACUACAGAAAUGUAGUUGACGAGGAGGAGGUUUAUCGAAUUUUCGGCGGAUGCCUCCAAA
# Variants of: B1
# Experiment: self-cleavage kobs at 10000 uM GlcN6P; higher = faster cleavage; RNA array
# Conditions: with glucosamine-6-phosphate
# How it was run: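 Tiles bearing barcoded ribozyme variants, transcribed in situ by E. coli RNA polymerase on sequenced MiSeq chips, were imaged over ~14 h at 37 °C using a hybridised Cy3 probe. Glucosamine-6-phosphate was supplied at 40 μM to 10 mM in HEPES/KCl/Mg(OAc)2 buffer. kobs came from one- or two-exponential decay fits to normalised per-tile medians, and weighted Michaelis–Menten fits then provided kcat and KM.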
row,Variant,self-cleavage kobs at 10000 uM GlcN6P [s⁻¹]
1,AUAAAAGCGCCAGAACUACAGAAAUGUAGUUGACGAGGAGGGGGUUUAUCGAAUCUUCGACGGAUGCCUCCAAA,4.43e-05 ± 1.7e-05
2,AUAAAAGCGCCAGAACUACAGAAAUGUAGUUGACGAGAAGGAGGUUUAUCAAAUUUUCGGCGGAUGCCUCCAAA,< 1e-05
3,AUAAAAGCGCCAGAACUACAGAAAUGUAGUUGACGAGGAGGAAGUUUAUCGAUUUUUCCUCGGAUGCCUCCAAA,< 1e-05
4,AUAAAAGCGCCAGAACUACAGAAAUGUAGUUGACGAGAAGGAGGUUUAUCGAAUUUUCCGCGGACGCCUACAAA,< 1e-05
5,AUAAAAGCGCCAGAACUACAGAAAUGUAGUUGACGAGGAGGAGUUUUAUCGAAUUUUCGGCGGAUCCCUCAAAA,< 1e-05
6,AUAAAAGCGCCAGAACUACAGAAAUGUAGUUGACGAGGAGGAGCUUUAUCGAAUUUUCGGCGGAGGUCUCCAAA,0.000247 ± 8.5e-05
7,AUAAAAGCGCCAGAACUACAGAAAUGUAGUUGACGAGGAGGUGCUUUAUCGAAUUUUCGGCUGAUGCCUGCAAA,< 1e-05
8,AUAAAAGCGCCAGAACUACAGAAAUGUAGUUGACGAGGGGGAGGUUUAGCGAAUUUUCGGCGGAUGCCUCCAAA,0.000904 ± 0.00021
9,AUAAAAGCGCCAGAACUACAGAAAUGUAGUUGACGAGGAGGUGGUUUAUCGAAUUUUUUGCGGAAGCCUGCAAA,< 1e-05
10,AUAAAAGCGCCAGAACUACAGAAAUGUAGUUGACGAGGUGGAGAUUUAUCGAAUUUUCGGCGGAUGGCUCCAAA,0.00582 ± 0.0014
11,AUAAAAGCGCCAGAACUACAGAAAUGUAGUUGACGAGGAGGGGGUUUAUCGAAUUUUGGGCGGAUACCUCCAAA,5.14e-05 ± 1.9e-05
12,AUAAAAGCGCCAGAACUACAGAAAUGUAGUUGACGAGAAGGAGGUUUAACGAAUUUUCGGCGGAUUCCUCCAAA,< 1e-05
13,AUAAAAGCGCCAGAACUACAGAAAUGUAGUUGACGAGGAUGAGGUUUAUCGAAUUUUCGGCUGAUGCGUCCAAA,< 1e-05
14,AUAAAAGCGCCAGAACUACAGAAAUGUAGUUGACGAGGUGGAGGUUUAUCGGAUUUUCGGCGGAUGGCUCCAAA,0.00016 ± 3.6e-05
15,AUAAAAGCGCCAGAACUACAGAAAUGUAGUUGACGAGGAGUUGGUUUAUCGAAUCUUCGGCGGAUGCCUGCAAA,0.000238 ± 4.7e-05
16,AUAAAAGCGCCAGAACUACAGAAAUGUAGUUGACGAGGACGAGGUUUAUCGAAUUUUCGGCGGGUGCCUCUAAA,0.00117 ± 0.00019
17,AUAAAAGCGCCAGAACUACAGAAAUGUAGUUGACGAGGACGAUGUUUAUCUAAUUUUCGGCGGAUGCCUCCAAA,< 1e-05
18,AUAAAAGCGCCAGAACUACAGAAAUGUAGUUGACGAGGAAGAGGUUUAUCUAAUUUUCGGCGGAUGCUUCCAAA,< 1e-05
19,AUAAAAGCGCCAGAACUACAGAAAUGUAGUUGACGAGGAGGAGUUUUAUCGAAUUUUUGGCUGAUGCAUCCAAA,< 1e-05

row,Variant,self-cleavage kobs at 10000 uM GlcN6P [s⁻¹]
1,AUAAAAGCGCCAGAACUACAGAAAUGUAGUUGACGAGGUGGAGGUUUAUCGAAUUUUCGGCGGAUUACUCCAAA,0.00316 ± 0.00061
2,AUAAAAGCGCCAGAACUACAGAAAUGUAGUUGACGAGGAGGAGCUUUAUCGAAUUUUCGGCGGAUGCCUUAAAA,< 1e-05
3,AUAAAAGCGCCAGAACUACAGAAAUGUAGUUGACGAGGGGGAUUUUUAUCGAAUUUUCGGCGGAUGGCUCCAAA,5.34e-05 ± 1.9e-05
4,AUAAAAGCGCCAGAACUACAGAAAUGUAGUUGACGAGGGGGAGGUUUAUCGAAUUUUCGGCGGAGGCCUUCAAA,0.0203 ± 0.0059
5,AUAAAAGCGCCAGAACUACAGAAAUGUAGUUGACGAGGAGUAGGUUUAUCGAAUUUUCGGCGGAUGCCACCAAA,3.54e-05 ± 1.5e-05
6,AUAAAAGCGCCAGAACUACAGAAAUGUAGUUGACGAGGAGGCGUUUUAUCGAAUUUUCGGCGGAUUCCUCCAAA,< 1e-05
7,AUAAAAGCGCCAGAACUACAGAAAUGUAGUUGACGAGGCGGAGGUUUAACGAAUUUUCGGUGGAUGCCUGCAAA,< 1e-05
8,AUAAAAGCGCCAGAACUACAGAAAUGUAGUUGACGAGCAGGAGGUUUAACUAAUUUUCGGCGGAUGCCUCUAAA,< 1e-05
9,AUAAAAGCGCCAGAACUACAGAAAUGUAGUUGACGAGGAGGACGUUUAUCGAAUUUUCGGCCGGUGCGUCCAAA,< 1e-05
10,AUAAAAGCGCCAGAACUACAGAAAUGUAGUUGACGAGGAGUAGGUUUAUCGAAUUUUCGGCGGAUGGAUCCAAA,0.000314 ± 0.00012
11,AUAAAAGCGCCAGAACUACAGAAAUGUAGUUGACGAGCAGGAGGCUUAACGAUUUUUCGGCGGAUGCCUCCAAA,< 1e-05
12,AUAAAAGCGCCAGAACUACAGAAAUGUAGUUGACGAGGAGGGGGUUUAAGGAAUUUUCGGCGGAUGCCUCCAAA,< 1e-05
13,AUAAAAGCGCCAGAACUACAGAAAUGUAGUUGACGAGGAGGAUGUUUAUUGAAUUUUCGGCGAAUGCCUCCAAA,< 1e-05
14,AUAAAAGCGCCAGAACUACAGAAAUGUAGUUGACGAGGAGGAAGUUUAUCUAAUUUUCGGCGCAUGCCUCCAAA,< 1e-05
15,AUAAAAGCGCCAGAACUACAGAAAUGUAGUUGACGAGGAAGAGGUUUAUCGAAUUUUCGGCGGAUGACUACAAA,0.0001 ± 2.9e-05
16,AUAAAAGCGCCAGAACUACAGAAAUGUAGUUGACGAGGAGGGGGUUUUUCGAAUGUUCGGCGGAUGCCUCCAAA,0.000404 ± 8.1e-05
17,AUAAAAGCGCCAGAACUACAGAAAUGUAGUUGACGAGGAGGAGAUGUAUCGAAGUUUCGGCGGAUGCCUCCAAA,0.000373 ± 0.0001
18,AUAAAAGCGCCAGAACUACAGAAAUGUAGUUGACGAGGAGCAGGUUUAUCGAAUUUUAGGUGGAUGCCUCCAAA,< 1e-05
